Where no end group is shown, it is not given here.
T1: antigenic peptide REEHIEGGHSNTDRPSR (human immunogenic peptide, residues 365-381 of IL4I1) coupled to BSA (human, also: coupled through Ahx spacer and Cys to BSA carrier, end not given here)
T1 peptide: REEHIEGGHSNTDRPSR


Biological target: T1, antigenic peptide REEHIEGGHSNTDRPSR …
Assay: ELISA screen against the antigenic peptide coupled to BSA

binding result	Binder
binds	anti-IL4I1 antibody D-5 IgG/λ (rabbit monoclonal, clone D-5, hybridoma CNCM I-5355) (antibody, V domains shown, Rabbit IgG/lambda from a hybridoma; It was used as hybridoma supernatant (clone D) or as purified IgG (subclone D-5); also called IgG D-5; AbD-5) VH: QQQLVESGGDLVKPEGSLTLTCTASGFSLSAGYFICWIRQAPGKGLEWIGSVFSGSSGTTYYASWAKGRFTISKTSSTTVTLQMTSLTAADTAIYFCARGGVLGGRVAYDNSFDHWGPGTLVTVSS VL: ELVLTQSPSVSAALGASAKLTCTLSSAHSTYTIEWYQQQPGESPRYLMQLKSDGSYTKGTGVPDRFSGSSSGADRYLIIFSVQADDEADYYCGANYSSGYVFGGGTQLTVT
binds	anti-IL4I1 antibody A-3 IgG/λ (rabbit monoclonal, clone A-3) (antibody, V domains shown, Rabbit IgG/lambda from a hybridoma; It was used as hybridoma supernatant (clone A) or as purified IgG (subclone A-3); also called IgG A-3; AbA-3) VH: QSLEESGGDLVKPEGSLTLTCTASGFSLSAGYFMCWVRQAPGKGLEWIGSIFSGSSGSTYYASWAKGRFTISKTSSTTVTLQMTSLTAADTAIYFCARGGVVDGRVAYDNSFDHWGPGTLVTVSS VL: ELVLTQSPSVSAALGASAKLTCTLSSAHSTYTIDWYQQQPGESPRYLMQLKSDGTYTKGTGVPDRFSGSSSGADRYLIIPSVQADDEAGYYCGANYSGGYVFGGGTQLTVTR

Reference: patent publication US20200166512A1 (CENTRE NATIONAL DE LA RECHERCHE SCIENTIFIQUE, published 2020)
